From US20230212217A1

Biological target: full domain protein A ligand (immobilised on resin) (UniProt P38507)
Assay: protein A affinity chromatography, pH gradient elution, POROS MabCapture A Select (Example 5-4)

Peak 1 End pH (elution): 3.95 pH
Peak 1 start pH (elution): 4.17 pH
Substance: GLP-1-Fc (from UniProt P01275 98-128) (Fc fusion)
